# Patent US20180155451A1 (published 2018)
# Where a chain is given by its changes, count along the chain named.
# T1: FcγRIIa R type extracellular domain with C-terminal His tag (human, UniProt P12318 34-217)
# T1 construct: extracellular domain; also called FcgRIIa R; FcgRIIaR; not shown: His tag at the C terminus
# T1 sequence (looked up): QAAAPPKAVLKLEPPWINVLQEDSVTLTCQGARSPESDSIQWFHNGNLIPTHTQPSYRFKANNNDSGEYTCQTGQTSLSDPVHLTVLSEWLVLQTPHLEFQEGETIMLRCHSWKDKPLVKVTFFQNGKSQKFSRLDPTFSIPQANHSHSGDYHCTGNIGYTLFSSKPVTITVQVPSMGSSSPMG
# T2: FcγRIIa H type extracellular domain with C-terminal His tag (human, UniProt P12318 34-217)
# T2 construct: extracellular domain; also called FcgRIIa H; FcgRIIaH; not shown: His tag at the C terminus
# T2 sequence (looked up): T1 sequence (looked up) with R134H
# T3: FcγRIIb extracellular domain with C-terminal His tag (human, UniProt P31994 43-217)
# T3 construct: extracellular domain; also called FcgRIIb; 2b; not shown: His tag at the C terminus
# T3 sequence (looked up): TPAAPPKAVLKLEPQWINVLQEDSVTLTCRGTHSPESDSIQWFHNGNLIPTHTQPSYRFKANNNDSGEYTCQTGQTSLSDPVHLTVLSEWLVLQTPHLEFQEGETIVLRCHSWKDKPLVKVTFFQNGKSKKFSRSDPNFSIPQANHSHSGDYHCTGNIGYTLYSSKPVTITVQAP
# B1: H240-FA030/H240-FB084/L73-k0 (antibody, human IgG1, kappa)
# heavy 1: QDQLVQSGAEVKKPGASVKVSCKASGFNIKDTYIQWVRQAPGQGLEWMGRIDPLRKQTKYREKFEGRVTITADTSTNTAYMELSSLRSEDTAVYYCVRSGREFDYWGQGTLVTVSSASTKGPSVFPLAPSSKSTSGGTAALGCLVKDYFPEPVTVSWNSGALTSGVHTFPAVLQSSGLYSLSSVVTVPSSSLGTKTYTCNVNHKPSNTKVDKKVEPKSCDKTHTCPPCPAPEYYWGPSVFLFPPKPKDTLMISRTPEVTCVVVDVSDEEPKVKFNWYVDGVEVHNAKTKPREEQYNATYRVVSVLTVLHQDWLNGKEYKCKVSNKALPAPIEKTISKAKGQPREPQVYTLPPSRKEMTKNQVSLTCLVKGFYPSDIAVEWESNGQPENNYKTTPPVLDSDGSFFLYSKLTVDKSRWQQGNVFSCSVMHEALHNRYTQKSLSLSP
# heavy 2: QDQLVQSGAEVKKPGASVKVSCKASGFNIKDTYIQWVRQAPGQGLEWMGRIDPLRKQTKYREKFEGRVTITADTSTNTAYMELSSLRSEDTAVYYCVRSGREFDYWGQGTLVTVSSASTKGPSVFPLAPSSKSTSESTAALGCLVEDYFPEPVTVSWNSGALTSGVHTFPAVLQSSGLYSLSSVVTVPSSNFGTQTYTCNVDHKPSNTKVDKTVEPKSCDKTHTCPPCPAPELLGGPSVFLFPPKPKDTLMISRTPEVTCVVVDVSHEEPEVQFNWYVDGVEVHNAETKPREEQYNSTYRVVSVLTVLHQDWLNGKEYKCKVSNDALPMPIEETISKAKGQPREPQVYTLPPSREEMTKNQVSLTCLVKGFYPSDIAVEWESEGQPENNYKTTPPVLDSDGSFFLYSKLTVDKSRWQQGNVFSCSVMHEALHNHYTQESLSLSP
# light: DIQMTQSPSSLSASVGDRVTITCRASQDIHKYIAWYQQKPGQAPRLLIQYTSTLQPGVPSRFSGSGSGTDYTFTISSLQPEDIATYYCLQYEQLRTFGGGTKVEIKRTVAAPSVFIFPPSDEQLKSGTASVVCLLNNFYPREAKVQWKVDNALQSGNSQESVTEQDSKDSTYSLSSTLTLSKADYEKHKVYACEVTHQGLSSPVTKSFNRGEC
# notes: Heterodimerized anti-EREG IgG1 antibody; A chain altered from H240-AK072, B chain altered from H240-BH076
# B2: H240-FA030/H240-FB083/L73-k0 (antibody, human IgG1, kappa)
# heavy 1: B1 heavy 1
# heavy 2: B1 heavy 2 with E383N
# light: B1 light
# notes: as for B1
# B3: H240-FA024/H240-FB084/L73-k0 (antibody, human IgG1, kappa)
# heavy 1: B1 heavy 1 with M357K
# heavy 2: B1 heavy 2
# light: B1 light
# notes: as for B1
# B4: H240-FA024/H240-FB065/L73-k0 (antibody, human IgG1, kappa)
# heavy 1: B1 heavy 1 with M357K
# heavy 2: B1 heavy 2 with E146K, E383N
# light: B1 light
# notes: as for B1
# B5: H240-FA030/H240-FB065/L73-k0 (antibody, human IgG1, kappa)
# heavy 1: B1 heavy 1
# heavy 2: B1 heavy 2 with E146K, E383N
# light: B1 light
# notes: as for B1
# B6: H240-FA024/H240-FB064/L73-k0 (antibody, human IgG1, kappa)
# heavy 1: B1 heavy 1 with M357K
# heavy 2: B1 heavy 2 with E146K, E287K, E383N
# light: B1 light
# notes: as for B1
# B7: H240-FA030/H240-FB082/L73-k0 (antibody, human IgG1, kappa)
# heavy 1: B1 heavy 1
# heavy 2: B1 heavy 2 with E136G, S137E, N191S, F192L, T198I, D202N, T213K
# light: B1 light
# notes: as for B1
# B8: H240-FA030/H240-FB064/L73-k0 (antibody, human IgG1, kappa)
# heavy 1: B1 heavy 1
# heavy 2: B1 heavy 2 with E146K, E287K, E383N
# light: B1 light
# notes: as for B1
# B9: H240-FA012/H240-FB056/L73-k0 (antibody, human IgG1, kappa)
# heavy 1: B1 heavy 1 with T198I
# heavy 2: B1 heavy 2 with S137G, N191S, F192L, T198I, T213K, E383N
# light: B1 light
# notes: as for B1
# B10: H240-FA024/H240-FB059/L73-k0 (antibody, human IgG1, kappa)
# heavy 1: B1 heavy 1 with M357K
# heavy 2: B1 heavy 2 with E136G, S137E, N191S, F192L, T198I, D202N, T213K, E383N
# light: B1 light
# notes: as for B1
# B11: H240-FA024/H240-FB082/L73-k0 (antibody, human IgG1, kappa)
# heavy 1: B1 heavy 1 with M357K
# heavy 2: B1 heavy 2 with E136G, S137E, N191S, F192L, T198I, D202N, T213K
# light: B1 light
# notes: as for B1
# B12: H240-FA009/H240-FB001/L73-k0 (antibody, human IgG1, kappa)
# heavy 1: B1 heavy 1 with T198I, K271E
# heavy 2: B1 heavy 2 with E136G, S137G, E146K, N191S, F192L, T198I, D202N, T213K, E287K, E383N
# light: B1 light
# notes: as for B1
# B13: H240-FA009/H240-FB015/L73-k0 (antibody, human IgG1, kappa)
# heavy 1: B1 heavy 1 with T198I, K271E
# heavy 2: B1 heavy 2 with S137G, E146K, N191S, F192L, T198I, D202N, T213K, E287K, E383N
# light: B1 light
# notes: as for B1
# Target: T4, FcγRIa extracellular domain with C-terminal His tag (human, UniProt P12314 16-292)
# T4 construct: extracellular domain; also called FcgRI; FcgRIa; not shown: His tag at the C terminus
# T4 sequence (P12314 16-292): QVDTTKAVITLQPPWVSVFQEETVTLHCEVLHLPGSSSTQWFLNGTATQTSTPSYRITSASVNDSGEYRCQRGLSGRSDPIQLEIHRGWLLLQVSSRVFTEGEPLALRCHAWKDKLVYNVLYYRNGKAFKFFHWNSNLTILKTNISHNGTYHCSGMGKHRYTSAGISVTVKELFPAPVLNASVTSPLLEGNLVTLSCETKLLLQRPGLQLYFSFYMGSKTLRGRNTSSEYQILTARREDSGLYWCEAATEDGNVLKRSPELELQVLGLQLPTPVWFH
# Experiment: SPR (Biacore), antibody captured on chip, soluble FcgR as analyte; experiment 1
# Experimental: (§1) Antibodies of interest were analyzed for the interaction to FcgR according to the method described in Reference Example 8.
# (§2) Analysis of interaction between obj ective antibody and the FcγR was carried out using Biacore T100 (GE Healthcare), Biacore T200, Biacore A100, and Biacore 4000. HBS-EP+ (GE Healthcare) was used as the running buffer, and the measurement temperature was set to 25° C. Chips produced by immobilizing the antigen peptide by the amine coupling method to a Series S sensor Chip CM5 (GE Healthcare), chips produced by allowing preliminarily biotinylated antigen peptides to interact with and immobilize onto a Series S Sensor Chip SA (certified) (GE Healthcare), chips produced by immobilizing Protein L (ACTIGEN, BioVision) to Series S Sencor Chip CM5 (GE Healthcare), or chips produced by immobilizing Protein A/G (Thermo Scientific) to Series S Sencor Chip CM5 (GE Healthcare) were used. Antibodies of interest were captured onto these chips, and allowed to interact to each FcγR diluted with running buffer. To regenerate and repeatedly use the chip, the antibodies captured onto the chip were washed off by reacting 10 mM glycine-HCl, pH 1.5.
row,Kd [nM],Binder
1,0.12,B1
2,0.081,B2
3,0.095,B3
4,0.15,B4
5,0.1,B5
6,0.095,B6
7,0.092,B7
8,0.057,B8
9,0.1,B9
10,0.089,B10
11,0.13,B11

# Target: T1, FcγRIIa R type extracellular domain …
# Experiment: as above
# Experimental: as §1, §2
row,Kd [nM],Binder
1,270,B1
2,280,B2
3,250,B3
4,300,B4
5,340,B5
6,330,B6
7,300,B7
8,290,B8
9,280,B9
10,290,B10
11,240,B11

# Target: T2, FcγRIIa H type extracellular domain …
# Experiment: as above
# Experimental: as §1, §2
row,Kd [nM],Binder
1,88,B1
2,82,B2
3,79,B3
4,95,B4
5,99,B5
6,110,B6
7,88,B7
8,96,B8
9,86,B9
10,93,B10
11,80,B11

# Target: T3, FcγRIIb extracellular domain with …
# Experiment: as above
# Experimental: as §1, §2
row,Kd [nM],Binder
1,2500,B1
2,1500,B2
3,1500,B3
4,1700,B4
5,2400,B5
6,1900,B6
7,1900,B7
8,1800,B8
9,1400,B9
10,1600,B10
11,1500,B11

# Target: T5, FcγRIIIa F type extracellular domain with C-terminal His tag (human, UniProt P08637 17-208)
# T5 construct: extracellular domain; also called FcgRIIIa F; FcgRIIIaF; not shown: His tag at the C terminus
# T5 sequence (P08637 17-208): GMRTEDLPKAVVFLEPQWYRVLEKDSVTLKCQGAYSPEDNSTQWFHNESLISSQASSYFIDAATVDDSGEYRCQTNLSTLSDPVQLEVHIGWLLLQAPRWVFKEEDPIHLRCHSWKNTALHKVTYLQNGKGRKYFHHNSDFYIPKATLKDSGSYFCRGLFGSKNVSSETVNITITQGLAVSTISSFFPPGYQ
# Experiment: as above
# Experimental: as §1, §2
row,Kd [nM],Binder
1,4.2,B1
2,3.9,B2
3,4.6,B3
4,5,B4
5,4.6,B5
6,4.7,B6
7,4.3,B7
8,5.3,B8
9,5,B9
10,4.4,B10
11,4.6,B11

# Target: T6, FcγRIIIa V type extracellular domain with C-terminal His tag (human, UniProt P08637 17-208)
# T6 construct: extracellular domain; also called FcgRIIIa V; FcgRIIIaV; not shown: His tag at the C terminus
# T6 sequence (P08637 17-208 F176V): as the sequence (P08637 17-208) above, with F160V counted along it
# Experiment: as above
# Experimental: as §1, §2
row,Kd [nM],Binder
1,1.3,B1
2,1.2,B2
3,1.2,B3
4,1.4,B4
5,1.1,B5
6,1.3,B6
7,1.3,B7
8,1.5,B8
9,1.3,B9
10,1.3,B10
11,1.3,B11

# Target: T4, FcγRIa extracellular domain with …
# Experiment: SPR (Biacore), antibody captured on chip, soluble FcgR as analyte; experiment 2
# Experimental: as §1, §2
row,Kd [nM],Binder
1,0.17,B12
2,0.093,B13

# Target: T1, FcγRIIa R type extracellular domain …
# Experiment: as above
# Experimental: as §1, §2
row,Kd [nM],Binder
1,250,B12
2,330,B13

# Target: T2, FcγRIIa H type extracellular domain …
# Experiment: as above
# Experimental: as §1, §2
row,Kd [nM],Binder
1,69,B12
2,84,B13

# Target: T3, FcγRIIb extracellular domain with …
# Experiment: as above
# Experimental: as §1, §2
row,Kd [nM],Binder
1,1300,B12
2,1800,B13

# Target: T5, FcγRIIIa F type extracellular domain …
# Experiment: as above
# Experimental: as §1, §2
row,Kd [nM],Binder
1,4.3,B12
2,4.2,B13

# Target: T6, FcγRIIIa V type extracellular domain …
# Experiment: as above
# Experimental: as §1, §2
row,Kd [nM],Binder
1,1.1,B12
2,1.3,B13
